# Reference: the DeepSol protein solubility set
# Assay: soluble on expression in E. coli; label from the status in PepcDB or PDB records
row,Sequence,soluble on expression in E. coli
1,MNTLSDSASPLYEKVKDFVLGNIGSGKWARNSRLPSENELVSALGVSRMTVHRALRELTSEGHLRRIQGVGTFVAPPRPRSTLIEISNIITEIKTRGSRHRAEVVVLERIARPEPELLLAFEFETVKPVDHSVVIHFENDLPVQLEERYVNPNLVSGYIDQDFAAVATYDYLQNATPLTEVEHLISALPANAEQARLLNVRPGDCCLILHRKTWTGPVVATVNTFTYVGSRYSLGSRYLHGGK,not soluble
2,ENLYFQGMKPIHVGLLGLGTVGGGTLTVLRRNAEEITRRAGREIRVVRAAVRNLDKAEALAGGLPLTTNPFDVVDDPEIDIVVELIGGLEPARELVMQAIANGKHVVTANKHLVAKYGNEIFAAAQAKGVMVTFEAAVAGGIPIIKALREGLTANRIEWLAGIINGTSNFILSEMRDKGAAFDDVLKEAQRLGYAEADPTFDIEGIDAAHKLTILSAIAFGIPMQFERAYTEGISQLTREDVRYAEELGYRIKLLGIARRAENGIELRVHPTLIPERRLIANVDGAMNAVLVKGDAVGPTLYYGAGAGSEPTASAVVADLVDVTRLHTADPHHRVPHLAFQPDQLADTPILPMEAVRTAYYLRLRAFDRPGVLADITRILADSSISIDAMVQKEPAEGEEQVDIILLTHVTLEKNVNAAIAKIEALDAVAGKVMRIRLEDLGAK,soluble
3,VPRGSAKGDGVTDDTAALTSALNDTPVGQKINGNGKTYKVTSLPDISRFINTRFVYERIPGQPLYYASEEFVQGELFKITDTPYYNAWPQDKAFVYENVIYAPYMGSDRAGVSRLHVSWVKSGDDGQTWSTPEWLTDLHPDYPTVNYHCMSMGVCRNRLFAMIETRTLAKNALTNCALWDRPMSRSLHLTGGITKAANQRYATIHVPDHGLFVGDFVNFSNSAVTGVSGDMTVATVIDKDNFTVLTPNQQTSDLNNAGKNWHMGTSFHKSPWRKTDLGLIPSVTEVHSFATIDNNGFAMGYHQGDVAPREVGLFYFPDAFNSPSNYVRRQIPSEYEPDASEPCIKYYDGVLYLITRGTRGDRLGSSLHRSRDIGQTWESLRFPHNVHHTTLPFAKVGDDLIMFGSERAENEWEAGAPDDRYKASYPRTFYARLNVNNWNADDIEWVNITDQIYQGGIVNSGVGVGSVVVKDNYIYYMFGGEDHFNPWTYGDNSAKDPFKSDGHPSDLYCYKMKIGPDNRVSRDFRYGAVPNRAVPVFFDTNGVRTVPAPMEFTGDLGLGHVTIRASTSSNIRSEVLMEGEYGFIGKSIPTDNPAGQRIIFCGGEGTSSTTGAQITLYGANNTDSRRIVYNGDEHLFQSADVKPYNDNVTALGGPSNRFTTAYLGSNPIVT,soluble
4,MEFIGDTRIVIINPLGAKKICRLTFEQIKVIYQEVKTHFENYRIIFTGLPQDLLTIPILEIETLPFDEFIYTVALTKYSDFVISVDTALVHIAAAYHKPTLAFYPNSRTPEYPSHLIWSPNHHKSIQIVSPTYTVKDIDTETLTNSVKRLEHHHHHH,not soluble
5,MASPPPFHSQKLPGEYFRYKGVPFPVGLYSLESISLAENTQDVRDDDIFIITYPKSGTTWMIEIICLILKEGDPSWIRSVPIWERAPWCETIVGAFSLPDQYSPRLMSSHLPIQIFTKAFFSSKAKVIYMGRNPRDVVVSLYHYSKIAGQLKDPGTPDQFLRDFLKGEVQFGSWFDHIKGWLRMKGKDNFLFITYEELQQDLQGSVERICGFLGRPLGKEALGSVVAHSTFSAMKANTMSNYTLLPPSLLDHRRGAFLRKGVCGDWKNHFTVAQSEAFDRAYRKQMRGMPTFPWDEDPEEDGSPDPEPSPEPEPKPSLEPNTSLEREPRPNSSPSPSPGQASETPHPRPS,soluble
6,RETFKVLLQGVPDGIDLEGLKTDILSLPHIRSVHDIHLWTLDGESHVMTIHVVYCPDDFSSPQAVFDMKESVREKCSAHGIRHATIELDPEGCSCGMESC,not soluble
7,MSGGGIIPRGGGYSKRRGRGRRGGGNGGFRDDIRDNQSDRHLSPDRRSNHSEDRHEHRFNNYRQQNRPNSRTPSPSNHNQVQTYRNNPFDARPALSSNDRDQGRNRFSPPSFRRDGRDSDRNGYHEKEEEPTRGSRNDLRTILKPTDKEAARTWKLRIADAEEAIRRAEFQLRRAKMDHEALLEAYKEYTETTCPQELLKPNW,not soluble
8,MGSDKIHHHHHHMNILEKLFSLKRKVALVTGGGQGIGKAIAQALAAAGAAVLIMDINEETARRTVEEIKEKGGEADFYVGDVTKEEDCFGAVKKALDRWGKLDIGVNNAGIGDWCEAENYPVEKWKKVIDVNLVGVFLSAKAEFHAMKERKYGKIINIASMSGHIVNKPQKQTAYNASKAGVIHLTRSLAAEWAPYGIRVNSISPGYIRTPLIESPNVKDLVPLWLDMIPLGRLGEVDDLIGAAIFLASPASDYMTGHDLVIDGGYTVW,not soluble
9,MSLNIHIHSMTGFANAAAECGSKRINLDIRAVNHRFLDIQIRMPDDLRYLESGIREKISSHIARGKVECKIQIQDTENSRQSLELNSDLVNQLAEINKNLRKHHDLAKLGVADILRFPGVLASQRENTEELAKSITELTEKALKDFTAARRREGKKLGEHLLQRLESMEEIIDALSELFPTLLETHKEKIRARLVEAVGDINNDRLQQEFALFIQKSDIDEEFSRLRTHIAEVRRIVTEHKGSSGKRLDFLMQELNREANTLGSKSIAAECTQASVELKVLIEQMREQVQNIEEGHHHHHH,soluble
10,MAHHHHHHMCACTYSYPRAAHGHDGTTSQLFTRKRIFTLPQLHRSYFLKLLFVQKPLSNPLLAVSLHLTFHQHHSLLGPSVACRAHKHMINYYAKCRARNHTEGEGRCLAFRGMY,not soluble
11,MTNHEQVLTDYLAAFIEELVQAGVKEAIISPGSRSTPLALMMAEHPTLKIYVDVDERSAGFFALGLAKASKRPVVLLCTSGTAAANYFPAVVEANLSQIPLIVLTADRPHELRNVGAPQAMDQLHLYGSHVKDFTDMALPENSDEMLRYAKWHSSRAVDIAMKTPRGPVHLNFPLREPLVPILEPSPFTATGKKHHHVH,not soluble
12,MSAATKKRYITNKVGSEFYELVDEDIIAQVRQSRGNNLHEVLDQNGDSYVVSMPTKFRKSVWLRRDQFVVVRPITEGDKVKGEIEYILDQDNVLYIRELGKWPTCFEENALKMTREAKRGQTSDKMIDDDMLPPSESEEEDESEGEETYDEDDVDDEEEEEFDTYNPNRMQAPSK,not soluble
13,MSIVSISYNQEEYIREALDGFAAQRTEFPVEVIIADDASTDATPRIIGEYAARYPQLFRPILRQTNIGVHANFKDVLSAARGEYLALCEGDDYWTDPLKLSKQVKYLDRHPETTVCFHPVRVIYEDGAKDSEFPPLSWRRDLSVDALLARNFIQTNSVVYRRQPSYDDIPANVMPIDWYLHVRHAVGGEIAMLPETMAVYRRHAHGIWHSAYTDRRKFWETRGHGMAATLEAMLDLVHGHREREAIVGEVSAWVLREIGKTPGRQGRALLLKSIADHPRMTMLSLQHRWAQTPWRRFKRRLSTELSSLAALAYATRRRALEGRDGGYRETTSPPTGRGRNVRGSHA,not soluble
14,MGSDKIHHHHHHMSTPLSHATLEQLFLNARTHSHWQPRPVSDELLHQLHELLKQAPTSANCSPARFVFVKSEAAKAKLKPCLAAGNVDKTMAAPVCVIVAHDTRFYEHLPQLFPHADAKSWFEGNQPLIDTTAFRNGTLQGAYLILAARSLGLDCGPMSGFDNAAVDAAFFPDGRVKSNFLINLGYGEADKLFPRSPRFGFDEACQIL,not soluble
15,MKMEVPQVDLPLEVLAWTKVTEDILNIYKQSCRLQACIFAICTEGTMKVSINLLEYEVHPNDLITLLPGTIIQFREKAEKVSLCFAGFSAKCIGHINLLTTIGNAYPKLIEQPIIPLSENIADYLKEYFALLSHASCDESFKMDSKLADLSLQTILTSIQLMYRNYSGNNHSNRKKEICRKLIQLITEHYKDQRCAQFYADQLGISLQHLSTTVKQVTGKSVLDTIAYIVIIDAKAQLKGTDMTIQEIAYSLNFPNPSFFCKFFRRHVGMSPLEFRNS,not soluble
16,MSSIKIECVLPENCRCGESPVWEEVSNSLLFVDIPAKKVCRWDSFTKQVQRVTMDAPVSSVALRQSGGYVATIGTKFCALNWKEQSAVVLATVDNDKKNNRFNDGKVDPAGRYFAGTMAEETAPAVLERHQGALYSLFPDHHVKKYFDQVDISNGLDWSLDHKIFYYIDSLSYSVDAFDYDLQTGQISNRRSVYKLEKEEQIPDGMCIDAEGKLWVACYNGGRVIRLDPVTGKRLQTVKLPVDKTTSCCFGGKNYSEMYVTCARDGMDPEGLLRQPEAGGIFKITGLGVKGIAPYSYAG,soluble
17,MSLASVDPYEHLNAWVSAIETSGVLVLATRGGKVAIDEMRGMCLYFDELPVIVLNGSDHPRPRLFSLLHEFVHVVLHTEGLCDVIADAHPSTQDRSLEARCNAIAAAVLMPADVVRARPEVIVRSETPSSWDYESLRPVAAHFGVSAEAFLRRLSTLGIVPVEVYRQRRAEFIAAHEDEAERARSAGGGNWYRNTVRDLGKGYVRAVTDAHRRRVIDSNTAAIYLDAKVSQIPKLAESAELRSVEGHHHHHH,not soluble
18,MSWFLLNRNLTLLEPYDWKLSRTVLRGERGSNASDLPGKAIAKEGMADYIRYLFKTVRKFYGEAVVVTQEVDDIISSPIVKESIVNNSDCKILLDQRKYLNKFSQIQSLLGLTDKEKAQILSVNMSNDPRRKYKEVWFGLGGVQSTVYATEVSLEEYLCYSTEESEKVELEGLTKELGGNIELAIRRLAEKKRNQNNEIP,not soluble
19,APQVVDKVAAVVNNGVVLESDVDGLMQSVKLNAAQARQQLPDDATLRHQIMERLIMDQIILQMGQKMGVKISDEQLDQAIANIAKQNNMTLDQMRSRLAYDGLNYNTYRNQIRKEMIISEVRNNEVRRRITILPQEVESLAQQVGNQNDASTELNLSHILIPLPENPTSDQVNEAESQARAIVDQARNGADFGKLAIAHSADQQALNGGQMGWGRIQELPGIFAQALSTAKKGDIVGPIRSGVGFHILKVNDLRGESKNISAAQKDRAYRMLMNRKFSEEAASWMQEQRASAYVKILSN,soluble
20,MKTLPVLPGQAASSRPSPVEIWQILLSRLLDQHYGLTLNDTPFADERVIEQHIEAGISLCDAVNFLVEKYALVRTDQPGFSACTRSQLINSIDILRARRATGLMTRDNYRTVNNITLGKYPEAK,soluble
21,MNHMKKNILFDGLRSVARIGETAFVAARAGIKYATEKPSNAKLMRETFESLGSTYIKLGQFIASTPSLFPREYVEEFQGCLDQTPTLPFSYIQEVLAEEFEGRDLNQIFASIDETPLASASIAQVHAARLTTGEDVVIKVQKPGVETILYTDLNVVHWATKMLEKAIPKVKFASLSEIVEEIKIRMVREVDFIEEAQNLDDFVEYLKITNNQAATAPKVYHQFSTRRILTMERLYGVSLTDFDIVKKFAKDPSQVLITAMNTWFGSLMLCKSFHADLHAGNLMLLEDGRIGFIDFGIVGQLNPQVWTACLAFMDALQKTDYTAMAENMLKMGMTKTQIDTQVLAQDLERLFSGVLLADPQEILASKPSDLNDIMLDMVAVGERHGIKFPRDFALLFKQMLYFDRFMRVLAPYTDIYADQRLKMVQTIEPQSLLKHLEHHHHHH,soluble
